Results as given in patent US20260265405A1 (NONA BIOSCIENCES SUZHOU, published 2026).
Substitutions are numbered along the chain they refer to. Names and notes keep the numbering of the source.

B1: PR300186 (antibody, human IgG1, kappa, V domains shown)
VH: QVQLQESGPGLVKPSETLSLTCTVSGGSINNYYWSWVRQPPGKGLEWIGYIFYSGSTNSNPSLKSRVIISVDTSKNQFSLKLSSVTAADTAVYYCAREVGRIAVAGWFFDLWGRGTLVTVSS
VL: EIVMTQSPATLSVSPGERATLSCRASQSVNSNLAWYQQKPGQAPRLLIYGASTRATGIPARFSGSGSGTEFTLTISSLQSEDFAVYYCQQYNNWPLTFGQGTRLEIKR
notes: Parental antibody from Harbour H2L2 mice
B2: PR300186-10 (antibody, human IgG1, kappa, V domains shown)
VH: B1 VH with N30Q, N58Q
VL: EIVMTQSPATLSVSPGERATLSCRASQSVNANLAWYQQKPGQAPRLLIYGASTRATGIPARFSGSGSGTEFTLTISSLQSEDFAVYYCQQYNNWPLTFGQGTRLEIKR
notes: PTM removal variant of PR300186: heavy chain N30Q and N58Q, light chain S31A
B3: PR300159 (antibody, V domains shown)
VH: QVQLVESGGGVVQPGRSLRLSCAASGFTFSSDGMNWVRQAPGKGLEWVAVIWNDGSNKYYADSVKGRFTISRDNSKNTLYLQMNSLRAEDTAVYYCARDRGPLWPLDYWGQGTLVTVSS
VL: DIQMTQSPSTLSASVGDRVTITCRASQSISRWLAWYQQKPGKAPKLLIYKASSLESGVPSRFSGSGSGTEFTLTISNLQPDDFATFYCQQYNSYSRTFGQGTKVEIKR
notes: as for B1
B4: PR300159-6 (antibody, V domains shown)
VH: B3 VH
VL: B3 VL with S93T
notes: PTM removal variant of PR300159: light chain S93T
B5: PR300159-1 (antibody, V domains shown)
VH: B3 VH with G33A, D54E
VL: B3 VL with N92S
notes: PTM removal variant of PR300159: heavy chain G33A and D54E, light chain N92S
B6: PR300159-9 (antibody, V domains shown)
VH: B3 VH with G33A, D54E
VL: B3 VL with S93A
notes: PTM removal variant of PR300159: heavy chain G33A and D54E, light chain S93A
B7: PR300159-4 (antibody, V domains shown)
VH: B3 VH
VL: B3 VL with S93A
notes: PTM removal variant of PR300159: light chain S93A
B8: PR300159-3 (antibody, V domains shown)
VH: B3 VH with G33A, G55A
VL: B3 VL
notes: PTM removal variant of PR300159: heavy chain G33A and G55A
B9: PR300159-8 (antibody, V domains shown)
VH: B3 VH
VL: B3 VL with N92A
notes: PTM removal variant of PR300159: light chain N92A
B10: PR300159-5 (antibody, V domains shown)
VH: B3 VH
VL: B3 VL with N92Q
notes: PTM removal variant of PR300159: light chain N92Q
B11: PR300159-7 (antibody, V domains shown)
VH: B3 VH
VL: B3 VL with N92T
notes: PTM removal variant of PR300159: light chain N92T
B12: PR300186-9 (antibody, human IgG1, kappa, V domains shown)
VH: B1 VH
VL: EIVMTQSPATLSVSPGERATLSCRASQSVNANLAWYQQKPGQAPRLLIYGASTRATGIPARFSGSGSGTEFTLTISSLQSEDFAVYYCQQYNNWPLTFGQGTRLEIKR
B13: PR300186-3 (antibody, human IgG1, kappa, V domains shown)
VH: B1 VH with N30Q, N58Q
VL: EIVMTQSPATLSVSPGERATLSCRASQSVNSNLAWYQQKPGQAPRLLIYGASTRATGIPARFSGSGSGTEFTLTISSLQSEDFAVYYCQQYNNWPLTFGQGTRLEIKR

What follows are binders tested against T1, recombinant human MSLN ECD His-tag protein (Acro Biosystems, Catalog #MSN-H5223) (human, UniProt Q13421 296-580, limits assumed) (assay: BLI (Octet Red384), antibody on AHC sensor, human MSLN-His in solution).
T1 construct: extracellular domain; Bought protein; also called human MSLN protein; recombinant human MSLN-His tag; not shown: His-tag
T1 sequence (Q13421 other isoform, or with tags, fused parts or gaps limits assumed): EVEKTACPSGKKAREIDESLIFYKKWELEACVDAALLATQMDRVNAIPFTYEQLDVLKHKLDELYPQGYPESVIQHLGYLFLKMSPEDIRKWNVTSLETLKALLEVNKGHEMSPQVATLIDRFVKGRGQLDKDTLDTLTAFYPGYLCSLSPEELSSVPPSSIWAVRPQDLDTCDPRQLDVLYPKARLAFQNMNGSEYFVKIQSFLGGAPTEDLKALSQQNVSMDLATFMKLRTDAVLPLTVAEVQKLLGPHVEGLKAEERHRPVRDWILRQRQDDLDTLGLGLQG
Description: In the example, binding kinetics of anti-MSLN antibodies to soluble MSLN were analyzed by Octet Red384 (Fortebio). In Bio-Layer Interferometry (BLI) analysis, recombinant human MSLN-His tag (Acro Biosystems, Catalog #MSN-H5223) was serially diluted with 1× kinetic buffer (Fortebio). Anti-MSLN antibodies were diluted to 5 μg/mL. Then the diluted antibodies, antigen and regeneration buffer (10 mM glycine pH 1.75) were added to 96-well plates (Greiner). Rate constants for association and dissociation were measured using AHC sensor (Fortebio). The sensor surface was regenerated after each binding experiment with regeneration buffer. The traces were processed using Octet Data Analysis Software (version 11.0, Pall ForteBio, CA, USA).

First: B1
Second: B2
The Kd of the first is 6.9-fold lower: 18.6 nM for the first, 128 nM for the second.

Going from B3 to B4, the Kd falls from 0.00965 nM to under 0.001 nM.

B5 and B6 cannot be ordered by Kd: under 0.001 nM for the first, under 0.001 nM for the second.

B7 and B8 cannot be ordered by Kd: under 0.001 nM for the first, under 0.001 nM for the second.

B9 and B10 cannot be ordered by Kd: under 0.001 nM for the first, under 0.001 nM for the second.

B11 gave a Kd of under 0.001 nM.

Going from B1 to B2, the kon falls from 705000 M⁻¹ s⁻¹ to 431000 M⁻¹ s⁻¹ (1.6-fold).

Compared with B3, B4 is 1.6-fold lower in kon: 1.28e+06 M⁻¹ s⁻¹ for the first, 819000 M⁻¹ s⁻¹ for the second.

Going from B5 to B6, the kon falls from 947000 M⁻¹ s⁻¹ to 566000 M⁻¹ s⁻¹ (1.7-fold).

B7 and B8 are within 1.5-fold of each other in kon: 978000 M⁻¹ s⁻¹ for the first, 828000 M⁻¹ s⁻¹ for the second.

B9 and B10 are within 1.5-fold of each other in kon: 956000 M⁻¹ s⁻¹ for the first, 1.05e+06 M⁻¹ s⁻¹ for the second.

For B11, the kon was 1.06e+06 M⁻¹ s⁻¹.

The binders below were run against T2, membrane-bound human MSLN (on CHOK1-hu MSLN cells and endogenously on COV644 cells) (human, UniProt Q13421 296-598) (assay: flow cytometry on COV644 cells (endogenous human MSLN), Alexa Fluor 488 anti-human IgG detection [panel A]).
T2 construct: whole, on cells; The assay field of each row says which cell line carried the protein; also called mesothelin; cell surface MSLN
T2 sequence (Q13421 other isoform, or with tags, fused parts or gaps limits assumed): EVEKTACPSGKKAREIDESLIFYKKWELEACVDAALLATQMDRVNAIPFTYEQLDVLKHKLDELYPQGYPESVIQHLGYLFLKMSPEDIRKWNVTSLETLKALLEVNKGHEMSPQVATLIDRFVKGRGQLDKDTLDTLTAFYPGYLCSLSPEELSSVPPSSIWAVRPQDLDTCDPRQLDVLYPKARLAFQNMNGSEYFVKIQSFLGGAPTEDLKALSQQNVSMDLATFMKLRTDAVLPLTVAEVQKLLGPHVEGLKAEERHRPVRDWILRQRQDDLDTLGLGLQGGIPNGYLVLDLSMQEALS
Description: (§1) Binding of recombinant anti-MSLN antibodies to human or cynomolgus MSLN-expressing cells was tested by flow cytometry.
(§2) In brief, anti-MSLN antibodies were serially diluted in staining buffer (PBS containing 2% FBS). 50 μL of diluted antibody solution was added to 50 μL of cell suspension containing 1-2×10⁵ cells and incubated at 4° C. for 1 hour. The cells were washed twice with staining buffer (PBS containing 2% FBS), and 100 μL of 1:1000 diluted florescent labeled anti-human IgG antibody (Alexa Fluor® 488 AffiniPure Goat Anti-Human IgG(H+L), Jackson ImmunoResearch, Catalog 109-545-088) was added into each well. After 1-hour incubation at 4° C., cells were washed twice with staining buffer and subjected to flow cytometry.

For B3, the “EC50 (read off the curve)” value was about 0.4 nM.

Each binder was assayed against T2, membrane-bound human MSLN (on CHOK1-hu …) (assay: flow cytometry on COV644 cells).
Description: as §2, with “Binding of recombinant anti-MSLN antibodies to COV644 cell line (ECACC, catalog: 07071908) was tested by flow cytometry. In” for “In”

Compared with B3, B4 is 2-fold higher in EC50: 1.99 nM for the first, 4.07 nM for the second.

Going from B5 to B6, the EC50 rises from 1.64 nM to 8.25 nM (5-fold).

B8 and B9 are within 1.5-fold of each other in EC50: 2.14 nM for the first, 2.33 nM for the second.

With B10 the EC50 was 2.75 nM.

Compared with B3, B4 is higher in “TOP (MFI)” value: 2.07e+06 MFI for the first, 2.19e+06 MFI for the second.

Compared with B5, B6 is lower in “TOP (MFI)” value: 2.34e+06 MFI for the first, 1.56e+06 MFI for the second.

Going from B8 to B9, the “TOP (MFI)” value rises from 2.06e+06 MFI to 2.15e+06 MFI.

With B10 the “TOP (MFI)” value was 2.13e+06 MFI.

The binders below were run against T2, membrane-bound human MSLN (on CHOK1-hu …) (assay: flow cytometry on CHOK1-human MSLN cells, Alexa Fluor 488 anti-human IgG detection [panel B]).
Description: as §1, §2

In the case of B1, the “EC50 (read off the curve)” value is reported as about 0.4 nM.

These binders were tested against T2, membrane-bound human MSLN (on CHOK1-hu …) (assay: flow cytometry on CHOK1-human MSLN cells, Alexa Fluor 488 anti-human IgG detection [panel A]).
Description: as §1, §2

For B3, the “EC50 (read off the curve)” value was about 1 nM.

These binders were tested against T2, membrane-bound human MSLN (on CHOK1-hu …) (assay: cell-based or functional assay).

First: B1
Second: B12
The “Internalization FLU” value of the first is lower: 6050 FLU for the first, 8070 FLU for the second.

Going from B2 to B13, the “Internalization FLU” value falls from 8220 FLU to 7040 FLU.

Compared with B3, B4 is lower in “Internalization FLU” value: 22200 FLU for the first, 17800 FLU for the second.

Going from B5 to B6, the “Internalization FLU” value falls from 13700 FLU to 8300 FLU.

Compared with B7, B8 is lower in “Internalization FLU” value: 20900 FLU for the first, 9180 FLU for the second.

Going from B9 to B10, the “Internalization FLU” value falls from 21200 FLU to 20900 FLU.

B11 was tested, and the “Internalization FLU” value was 22400 FLU.
